± gives the uncertainty stated by the source.
Experiment: amyloid nucleation score (Sup35N fusion, yeast selection) (log enrichment); library NNK1; higher = more nucleation; inactive = no reads after selection
Procedure, shortened: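 The nucleation score is the DiMSum log enrichment of output over input reads, centred on the mode score of non-aggregating sequences. Only sequences with 100 or more input reads were scored, using Illumina sequencing of input and output plasmid inserts. Psi-negative yeast expressing Sup35N fused to peptides of 20 random codons were induced 24 hours with 100 μM copper sulfate and grown 7 days at 30°C on medium lacking adenine and uracil.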

Point of comparison: IFCITGAGLLDRCSSRTLAS, amyloid nucleation score -0.175 ± 0.41. Against it:
- SGLFPVLGEHGNHRVSGSI — within error, -1.4 ± 1.6
- PFEYLVRLIYCEDVAYLGTG — within error, -0.148 ± 0.62
- DVFHTLIRSRLDFFFYKRER — within error, 0.14 ± 0.4
- QFMIICHMMVNNW — higher, 7.003 ± 0.044
- AARELKIVTRVMHFDADREA — within error, 0.103 ± 0.43
- SQDGISMMLGMSGWRGHASV — within error, 0.659 ± 1
- SVASRACW — within error, 0.139 ± 0.8
- ALRGMWNKVRSGGWCYRCTW — within error, -0.05 ± 1.4
- VKMFMD — within error, 0.644 ± 0.59
- ATCNNI — within error, -0.431 ± 1.4
- GHSRRLYCGLEAGARCGFSR — within error, -0.455 ± 1.5
- TKDRFYEC — within error, 0.419 ± 0.58
- GLACYM — within error, 0.413 ± 0.4
- IITCRSASETMWFSCFDGLA — higher, 2.95 ± 0.17
- MLYDFVDIRECNDILPARGG — within error, 0.043 ± 0.35
- ILQIYLMWQVW — higher, 4.85 ± 0.05
- LLLIFNEELW — within error, -0.28 ± 0.43
- LMMQRERPFRLYL — within error, -1.34 ± 1.6
- AWNTGSIARHSFSRIVSTCD — within error, 0.182 ± 0.39
- EAIIEWWFHDSLASHSCTEV — within error, 0.58 ± 1.2
- NWRFGLYSHIGIWLMVKS — higher, 1.86 ± 0.38
- RVGESVI — within error, 0.348 ± 0.55
- DDLPPRRNASFQWNKGFFRV — within error, -0.448 ± 1.7
- DLEPWWACLAKGSSGLISYV — within error, 0.396 ± 0.38
- FVCSVFKSYCKSRVFFARAT — within error, -0.025 ± 0.28
- NISDTIC — within error, 0.474 ± 0.85
- SDLMWVLSCESLRITHRLVG — higher, 1.93 ± 0.56
- RVSVDRPQRVGTGSPCCGGD — higher, 2.77 ± 0.11
- FSGHFNARGFSDSWYVCMIG — within error, -0.855 ± 1.6
- AVLRRYQFVYDLSYLYEDFL — within error, -0.836 ± 0.48
- MVVLRFAKCDSCMTSMAKIL — within error, -0.045 ± 0.3
- ICDINQCRMAFYLCFLLREY — higher, 3.35 ± 0.099
- NLPVGLEAM — within error, -0.327 ± 0.62
- YYVDV — within error, -0.034 ± 0.88
- NGFSYVCFNGFQLMCLDSIM — higher, 7.779 ± 0.044
- SCGNNYTSV — within error, -0.236 ± 0.2
- QFFTILCTGILLLNASTRLL — within error, -0.777 ± 2.4
- LRIFSKLFTSSLYNCFEGIP — within error, 0.143 ± 0.58
- FWNFRVIC — within error, 0.259 ± 1.4
- YCEYILGFCFEMYAFGNRSP — within error, 0.573 ± 0.62
- QISVGTYWFANWCGIILNQV — higher, 1.99 ± 0.28
- YHVRLV — within error, 0.147 ± 0.34
- RYYRVLLKFVLLSLVCTRYA — higher, 0.578 ± 0.19
- THNSLFSHVSWYRCVSSGVF — within error, 0.304 ± 1.1
- AHSGMRLL — within error, 0.569 ± 0.75
- RWDYDWNQVSCNDSRIGKLT — within error, 0.565 ± 0.61
- RILMFKYGKTWRPQCCQD — within error, 0.04 ± 0.53
- ADKTGGPVTNITFLAWPWWG — higher, 3.95 ± 0.13
- ATVKVPNNSIRNDFFSNDRD — within error, -1.13 ± 1.2
- WKFLFVVFIYSNYVVGLLDN — within error, -0.915 ± 0.67
- CLRDNSRRGRNVQSL — within error, -1 ± 1.5
- GFSILAPSKYVVNYWMHPQS — higher, 7.691 ± 0.049
- LHWFQLMANFI — within error, -0.069 ± 0.28
- SHRSRGLANRSCDGVPTVRR — higher, 1.84 ± 0.46
- YALCKLSA — within error, 0.851 ± 0.79
- LFMIMLL — within error, -1.01 ± 0.43
- LLSFGTFTGPKRVYLSLSMV — within error, 0.059 ± 0.86
- GYSYFPNYHVFRVHE — higher, 1.27 ± 0.54
- YGYLTITPVQVYIQRTSTWT — higher, 4.16 ± 0.12
- TDEVDDIQF — within error, 0.552 ± 0.59
- PVFCPRV — within error, -1.55 ± 1.3
- LDCHD — within error, -0.246 ± 0.44
- VFFGLTICFFVAHHCQERGS — higher, 2.54 ± 0.21
- SCSYLSKYTYRREMVYGNEV — within error, 0.002 ± 0.22
- MVTTWVHGYVWRANGQTLFR — higher, 1.28 ± 0.7
- GMAVNGYHSLRGKVLEDVGN — within error, -0.289 ± 0.79
- EFKLDNFQIVGYLLLTRRLI — within error, 0.222 ± 0.32
- RDRNNCYFSDDSNLREAT — within error, -0.634 ± 0.62
- GGYVLPYSLFFGVPSIAFVG — within error, 0.602 ± 0.7
- SSFSVVFDSHVSS — within error, 0.382 ± 1.4
- KGMYISWIVAVCS — within error, 0.411 ± 0.3
- ELGYSTHCIMS — within error, -0.735 ± 0.66
- PWCTGRLTGSNCKVYWITRS — within error, 0.515 ± 0.36
- RYLDSLYKPRYYYQMVAIYG — within error, 0.004 ± 0.41
- KLLHLVIVDELCFVRYSGLA — within error, 0.381 ± 0.81
- YFASCRTM — within error, -0.193 ± 0.27
- LCMMMVQPLQGLSSAVTWSQ — within error, -0.54 ± 0.35
- SDASHHHRYRESHDYCFFRK — within error, 0.272 ± 0.4
- IVGIVT — higher, 1.04 ± 0.35
- RSFNYVLSTL — within error, 0.45 ± 0.42
- KSYVCGTLTFRLGSVHCVNM — higher, 7.025 ± 0.057
- RMVTTIIERVSIVCMKPSYR — higher, 1.35 ± 0.88
- NVLWIPSSGISSVRLEGIAM — within error, 0.393 ± 0.46
- FWVRSGCVSMYGPRRVALEV — within error, -0.003 ± 0.43
- YLTGVYNWGMCKTCFPRDWG — higher, 2.65 ± 0.096
- GVTHKDMSNDYFMGD — within error, -0.285 ± 0.47
- YYYGKVA — within error, 0.227 ± 0.57
- NACGQVLCWYL — higher, 8.816 ± 0.058
- QNMLDWLKLGLYYHNFQAWV — within error, -0.94 ± 2.7
- YLDGVECTN — within error, -0.366 ± 0.63
- SVWDERIPGGYSPIRVCPSW — within error, -0.337 ± 0.74
- NIGVMVLVLDARKDKRFGKI — higher, 7.65 ± 0.082
- SNCERAIAKSHLVARPFSVS — within error, 0.16 ± 0.73
- EGYPTMSMNSRS — higher, 0.716 ± 0.44
- PWSPTVIRPVFSEKGQFSQL — within error, -0.538 ± 0.59
- GRLMTFSINRRNVWKCDGSR — within error, -0.207 ± 1.1
- FRDFMMTFMFPRDMSSGAVG — within error, 0.067 ± 0.4
- GKNFYREDAVSVCRWL — within error, 0.342 ± 0.64
- SDNVSRLRILDR — higher, 1.93 ± 0.47
- IDWQLTSLDQGSCFLA — within error, -0.468 ± 0.88
- IPPCWLTGLFNQYMNWTRS — within error, -0.134 ± 0.31
- HVSLVHLRYCRICSLLSMWG — higher, 2.77 ± 0.12
- TVLVT — within error, -0.461 ± 0.48
- CGVLKTRIPLCFGVFEWNSL — within error, 0.475 ± 0.72
- NISVVGSSING — higher, 0.713 ± 0.23
- AQSSVKRWGGLCRNVMKDGW — within error, 0.276 ± 0.32
- FPYRGLLFTRLIPAAVGKGA — within error, 0.171 ± 0.74
- GYGQCSGSYAGSGGT — within error, 0.715 ± 0.57
- SVLVWADLCHDTEA — within error, 0.42 ± 0.84
- VQSIRRKVLETRQERVGAQR — within error, 0.04 ± 0.42
- YCCYLMCYSRRILDGP — within error, 0.174 ± 0.43
- VRIRPISPMPDYSPPANWSK — within error, 0.041 ± 0.47
- DNRIIWLRGTMS — within error, 0.853 ± 0.92
- TGASLLVAHRTYSEIILRCD — within error, 0.606 ± 0.49
- FVGTKQWMARGLVNDVKPVH — within error, -0.161 ± 0.45
- EKLSRAVYPRASIRVVCMLF — within error, -0.204 ± 0.34
- RVFQSNPCGT — within error, 0.109 ± 1.4
- GITIITFIDGSLLGRDFPCW — higher, 2.14 ± 0.26
- FKYYQAGSYNRKRMTQDGGS — within error, 0.175 ± 0.46
- YIFWLYWRQSSSNCLGDVKW — within error, -0.46 ± 0.46
- SGNKGRLSLLYYILFMPWLA — within error, -0.412 ± 1
- VFWGL — within error, 0.072 ± 0.47
- FAVINSPNKAGNRITRLGTY — within error, 0.681 ± 0.47
- LIVIPKGG — higher, 1.58 ± 0.51
- MTWNNWCSMRLACIS — higher, 3.9 ± 0.074
- RNMVSLRHSEDVICVQDTTP — within error, -0.729 ± 0.34
- FQGRLVFVDCDIRLVALKGS — higher, 3.88 ± 0.067
- LSSSWLNKKLH — within error, -0.647 ± 0.9
- SLPFVTLLNAMCVCSGANCL — higher, 8.449 ± 0.045
- TRTPAWGWFPQST — within error, -0.105 ± 0.81
- LCWVYHYKGFKRGVCRRCES — within error, -0.86 ± 1.6
- SYPTKLPWFGGGYNRGSMSS — within error, -0.481 ± 0.58
- TFYRLSISVVSLNMVIHPGP — higher, 1.5 ± 0.2
- YSSRIVRVSVRRVIHQSLRS — higher, 1.41 ± 0.52
- NLGYDCGLGAMSGWMRWLIS — within error, 0.459 ± 0.64
- LIVNLDMTSVLHVSGELR — higher, 5.22 ± 0.078
- DRSTIWSTHNSTYVVYYLVV — higher, 5.18 ± 0.063
- LWVVPLE — within error, -0.643 ± 1.9
- RGHLKLVTNYISMSRVSYFS — higher, 2.07 ± 0.16
- QYGWCIAYSLELCSLSPNLI — within error, 0.326 ± 0.37
- FFSPSNKNYKR — within error, -0.215 ± 0.35
- SMNHVFYYFIRMWTSM — within error, 0.156 ± 0.63
- LVTFPKLSEVIHGKADVMHS — within error, -0.633 ± 0.88
- CMSSLLFD — higher, 0.921 ± 0.49
- EYNGCYFPRIM — within error, 0.628 ± 0.66
- KSLSRFRVTNSKEYMSAMGT — within error, -0.299 ± 0.26
- DLSMKRVDKAPCYGNGDYRT — within error, -0.644 ± 0.98
- YRKFENGVSVIRFEVQCTLV — higher, 4.88 ± 0.072
- VISHEPAVFPTSRS — within error, 0.121 ± 0.45
- TDGQWMSYSFSAFASYVVLG — within error, -0.179 ± 0.58
- CSAFDVIN — within error, -0.556 ± 1.4
- LDWHKLRDWVKLGW — within error, -0.255 ± 0.73
- VVQFKMWACQTFFMDLRNTM — higher, 1.56 ± 0.11
- WSSYTFR — within error, 0.839 ± 0.63
- MSSVVLANFEGPAHELATGV — within error, -0.072 ± 0.58
- SPPMSKLVMATRVLKCMDPS — within error, 0.086 ± 0.79
- WIYRFPHKMHVIEDVRSVN — higher, 0.894 ± 0.58
- LQVVALW — within error, 0.123 ± 0.56

In the case of VMDQLIV, the amyloid nucleation score is reported as “inactive”.
With MYFIVCTSWGSVVDRGIH the amyloid nucleation score was “inactive”.
With SALSGWVANSCYEVRGLRNV the amyloid nucleation score was “inactive”.
With CNDFCCT the amyloid nucleation score was “inactive”.
In the case of FPSLNNVNPSGFCSISSFRG, the amyloid nucleation score is reported as “inactive”.
In the case of IVGVEGLKPIKAPLLLNRSV, the amyloid nucleation score is reported as “inactive”.
With CELPGLGVLLVGGKPMEWLN the amyloid nucleation score was “inactive”.
With TRTRLEHNSVRKFWEL the amyloid nucleation score was “inactive”.
With DKLLPHFK the amyloid nucleation score was “inactive”.
In the case of IECPMAYTKTYFVYESEKRN, the amyloid nucleation score is reported as “inactive”.
In the case of LGDELDTDAASISSNMEIWS, the amyloid nucleation score is reported as “inactive”.
In the case of GHWLRQVSRRLVPADDCMVQ, the amyloid nucleation score is reported as “inactive”.
With KTRFLKYDNLSWTDKSNWVL the amyloid nucleation score was “inactive”.
For RDNFEMFSPAAKYALFASGT, the amyloid nucleation score was “inactive”.
